Measurements as given in the supplement of paper PMC10567573.

B1: RHOBTB3 (parent)
chain: KVVEAHKIVLCAVSHVFMLLFNVK

Variants of: B1
Experiment: protein stability index of a GFP-peptide fusion (GPS, HEK-293T) (PSI 1-6); higher = more stable
Conditions: c terminus: a fixed tail appended
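Also: lentivirally expressed fusions sorted by FACS into six bins by GFP to DsRed ratio, PSI derived from sequencing read proportions per bin multiplied by bin number.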

Compared with KVVEAHKIVLCAVSHIFMLLFNVK [V16I], KVVEAHKIVLCAVSHPFMLLFNVK [V16P] is higher in protein stability index: 2.65 for the first, 3.16 for the second.

Compared with KVVEAHKIVLCAVSHLFMLLFNVK [V16L], KVVEAHKIVLCAVSHDFMLLFNVK [V16D] is lower in protein stability index: 2.43 for the first, 2.39 for the second.

First: KVVEAHKIVLCAVSHFFMLLFNVK [V16F]
Second: KVVEAHKIVLCAVSHMFMLLFNVK [V16M]
The protein stability index of the first is higher: 2.99 for the first, 2.3 for the second.

Compared with KVVEAHKIVLCAVSHCFMLLFNVK [V16C], KVVEAHKIVLCAVSHAFMLLFNVK [V16A] is lower in protein stability index: 3.59 for the first, 2.97 for the second.

First: KVVEAHKIVLCAVSHQFMLLFNVK [V16Q]
Second: KVVEAHKIVLCAVSHNFMLLFNVK [V16N]
The protein stability index of the first is higher: 3.14 for the first, 3.11 for the second.

First: KVVEAHKIVLCAVSHKFMLLFNVK [V16K]
Second: KVVEAHKIVLCAVSHHFMLLFNVK [V16H]
The protein stability index of the first is higher: 3.55 for the first, 2.98 for the second.

Compared with KVVEAHKIVLCAVSHEFMLLFNVK [V16E], KVVEAHKIVLCAVSHGFMLLFNVK [V16G] is higher in protein stability index: 3.26 for the first, 3.44 for the second.

First: KVVEAHKIVLCIVSHVFMLLFNVK [A12I]
Second: KVVEAHKIVLCYVSHVFMLLFNVK [A12Y]
The protein stability index of the first is lower: 1.96 for the first, 2.46 for the second.

Compared with KVVEAHKIVLCDVSHVFMLLFNVK [A12D], KVVEAHKIVLCVVSHVFMLLFNVK [A12V] is lower in protein stability index: 3.75 for the first, 2.57 for the second.

Going from KVVEAHKIVLCCVSHVFMLLFNVK [A12C] to KVVEAHKIVLCGVSHVFMLLFNVK [A12G], the protein stability index rises from 2.29 to 2.92.

Going from KVVEAHKIVLCNVSHVFMLLFNVK [A12N] to KVVEAHKIVLCFVSHVFMLLFNVK [A12F], the protein stability index falls from 3.15 to 2.55.

First: KVVEAHKIVLCPVSHVFMLLFNVK [A12P]
Second: KVVEAHKIVLCSVSHVFMLLFNVK [A12S]
The protein stability index of the first is lower: 2.73 for the first, 2.78 for the second.

Compared with KVVEAHKIVLCTVSHVFMLLFNVK [A12T], KVVEAHKIVLCEVSHVFMLLFNVK [A12E] is higher in protein stability index: 1.6 for the first, 2.31 for the second.

Going from KVVEAHKIVLCHVSHVFMLLFNVK [A12H] to KVVEAHKIVLCRVSHVFMLLFNVK [A12R], the protein stability index falls from 2.83 to 2.33.

Going from KVVEAHKIVLCKVSHVFMLLFNVK [A12K] to KVVEAHKIVLCMVSHVFMLLFNVK [A12M], the protein stability index falls from 2.92 to 2.2.

Going from KVVEAHKIVLCQVSHVFMLLFNVK [A12Q] to KVVEAHKIVLCLVSHVFMLLFNVK [A12L], the protein stability index rises from 2.37 to 3.63.

Compared with KVVEAHKIVLCAVSFVFMLLFNVK [H15F], KVVEAHKIVLCAVSIVFMLLFNVK [H15I] is higher in protein stability index: 2.06 for the first, 3.89 for the second.

Compared with KVVEAHKIVLCAVSSVFMLLFNVK [H15S], KVVEAHKIVLCAVSYVFMLLFNVK [H15Y] is higher in protein stability index: 2.82 for the first, 3.36 for the second.

Going from KVVEAHKIVLCAVSVVFMLLFNVK [H15V] to KVVEAHKIVLCAVSNVFMLLFNVK [H15N], the protein stability index rises from 3.1 to 3.41.

Compared with KVVEAHKIVLCAVSTVFMLLFNVK [H15T], KVVEAHKIVLCAVSDVFMLLFNVK [H15D] is higher in protein stability index: 1.92 for the first, 3.14 for the second.

Going from KVVEAHKIVLCAVSPVFMLLFNVK [H15P] to KVVEAHKIVLCAVSCVFMLLFNVK [H15C], the protein stability index rises from 1.89 to 3.87.

Going from KVVEAHKIVLCAVSQVFMLLFNVK [H15Q] to KVVEAHKIVLCAVSKVFMLLFNVK [H15K], the protein stability index falls from 2.78 to 2.17.

Going from KVVEAHKIVLCAVSRVFMLLFNVK [H15R] to KVVEAHKIVLCAWSHVFMLLFNVK [V13W], the protein stability index falls from 2.27 to 1.82.

Compared with KVVEAHKIVLCAISHVFMLLFNVK [V13I], KVVEAHKIVLCASSHVFMLLFNVK [V13S] is higher in protein stability index: 2.66 for the first, 2.92 for the second.

First: KVVEAHKIVLCAASHVFMLLFNVK [V13A]
Second: KVVEAHKIVLCAESHVFMLLFNVK [V13E]
The protein stability index of the first is lower: 1.41 for the first, 2.5 for the second.

Compared with KVVEAHKIVLCAPSHVFMLLFNVK [V13P], KVVEAHKIVLCAMSHVFMLLFNVK [V13M] is higher in protein stability index: 2.59 for the first, 4.81 for the second.

Compared with KVVEAHKIVLCARSHVFMLLFNVK [V13R], KVVEAHKIVLCALSHVFMLLFNVK [V13L] is lower in protein stability index: 3.01 for the first, 2.12 for the second.

Going from KVVEAHKIVLCAQSHVFMLLFNVK [V13Q] to KVVEAHKIVLCATSHVFMLLFNVK [V13T], the protein stability index rises from 2.9 to 4.13.

Going from KVVEAHKIVLCACSHVFMLLFNVK [V13C] to KVVEAHKIVLCAHSHVFMLLFNVK [V13H], the protein stability index falls from 3.14 to 2.36.

Compared with KVVEAHKIVLCAKSHVFMLLFNVK [V13K], KVVEAHKIVLCANSHVFMLLFNVK [V13N] is lower in protein stability index: 3.18 for the first, 2.33 for the second.

First: KVVEAHKIVLCAYSHVFMLLFNVK [V13Y]
Second: KVVEAHKIVLCAGSHVFMLLFNVK [V13G]
The protein stability index of the first is higher: 2.62 for the first, 2.42 for the second.

Compared with KVVEAHKIVLCAVTHVFMLLFNVK [S14T], KVVEAHKIVLCAVLHVFMLLFNVK [S14L] is lower in protein stability index: 2.95 for the first, 2.6 for the second.

Compared with KVVEAHKIVLCAVIHVFMLLFNVK [S14I], KVVEAHKIVLCAVAHVFMLLFNVK [S14A] is lower in protein stability index: 2.88 for the first, 2.36 for the second.

First: KVVEAHKIVLCAVMHVFMLLFNVK [S14M]
Second: KVVEAHKIVLCAVKHVFMLLFNVK [S14K]
The protein stability index of the first is higher: 3.96 for the first, 2.65 for the second.

First: KVVEAHKIVLCAVHHVFMLLFNVK [S14H]
Second: KVVEAHKIVLCAVQHVFMLLFNVK [S14Q]
The protein stability index of the first is higher: 3.58 for the first, 1.94 for the second.

First: KVVEAHKIVLCAVDHVFMLLFNVK [S14D]
Second: KVVEAHKIVLCAVFHVFMLLFNVK [S14F]
The protein stability index of the first is lower: 2.17 for the first, 2.8 for the second.

Compared with KVVEAHKIVLCAVYHVFMLLFNVK [S14Y], KVVEAHKIVLCAVVHVFMLLFNVK [S14V] is lower in protein stability index: 2.55 for the first, 2.49 for the second.

Compared with KVVEAHKIVLCAVRHVFMLLFNVK [S14R], KVVEAHKIVLCAVGHVFMLLFNVK [S14G] is higher in protein stability index: 1.41 for the first, 2.17 for the second.

Going from KVVEAHKIVLCAVPHVFMLLFNVK [S14P] to KVVEAHKIVLCAVNHVFMLLFNVK [S14N], the protein stability index rises from 2.55 to 3.59.

KVVEAHKIVLGAVSHVFMLLFNVK [C11G] and KVVEAHKIVLMAVSHVFMLLFNVK [C11M] are the same in protein stability index: 2.26 for the first, 2.26 for the second.

Compared with KVVEAHKIVLEAVSHVFMLLFNVK [C11E], KVVEAHKIVLNAVSHVFMLLFNVK [C11N] is higher in protein stability index: 1.86 for the first, 1.88 for the second.

Compared with KVVEAHKIVLHAVSHVFMLLFNVK [C11H], KVVEAHKIVLWAVSHVFMLLFNVK [C11W] is lower in protein stability index: 4.45 for the first, 2.66 for the second.

First: KVVEAHKIVLFAVSHVFMLLFNVK [C11F]
Second: KVVEAHKIVLSAVSHVFMLLFNVK [C11S]
The protein stability index of the first is lower: 1.94 for the first, 1.98 for the second.

First: KVVEAHKIVLKAVSHVFMLLFNVK [C11K]
Second: KVVEAHKIVLRAVSHVFMLLFNVK [C11R]
The protein stability index of the first is lower: 1.75 for the first, 1.98 for the second.

Going from KVVEAHKIVLTAVSHVFMLLFNVK [C11T] to KVVEAHKIVLQAVSHVFMLLFNVK [C11Q], the protein stability index rises from 1.99 to 2.37.

Compared with KVVEAHKIVLPAVSHVFMLLFNVK [C11P], KVVEAHKIVLIAVSHVFMLLFNVK [C11I] is higher in protein stability index: 2.8 for the first, 4.05 for the second.

Compared with KVVEAHKIVLVAVSHVFMLLFNVK [C11V], KVVEAHKIVLLAVSHVFMLLFNVK [C11L] is lower in protein stability index: 3.24 for the first, 2.24 for the second.
